{"source": "patent US11723946B2", "about": "“Methods for regulating transcription of multiple genes and expression of multiple targets” (CHINA MEDICAL UNIVERSITY, priority 2014, dated 2023)", "molecules": {"B1": {"name": "present polypeptide: polypeptide comprising the amino acid sequence of SEQ ID No. 1; made by peptide synthesis, recombinant expression or extraction from Momordica charantia (peptide, listed as Artificial synthsis)", "chain": "SRCQGKSSWPQLVGSTGAAAKAWIERENPRVRAVIIKVGSGATKDFRCDRVRVWVTERGIVARPPTIG"}}, "tested_on": "NF-κB", "assay": "Ex vivo bioluminescent imaging of organs, LPS-induced NF-κB/luc transgenic mice", "assay_type": "in vivo", "procedure": "The mice of the three groups manipulated in example 3 were abdominally injected with 150 mg/Kg luciferin. After luciferin injection for 5 minutes, the mice were sacrificed and the tissues including brain, heart, lung, liver, spleen, stomach, kidney, ovary and intestine were rapidly removed. The collected tissues were placed in the IVIS Imaging System-200 Series (Xenogen, Hopkinton, Mass.) and imaged with the same setting used for in vivo bioluminescent imaging.\nIn the table 2, the average of luciferin value in the mice of the group 2 was divided to average of luciferin value in the mice of the group 1 to obtain the fold change. In table 3, the average of luciferin value in the mice of the group 3 was divided to the average of luciferin value in the mice of the group 2 to obtain the fold change.", "key": {"[1]": {"settings": "group 3 (LPS + 0.5 mg/Kg polypeptide IP) vs group 2 (LPS), down-regulation"}, "[2]": {"settings": "group 3 (LPS + 0.5 mg/Kg polypeptide IP) vs group 2 (LPS), up-regulation"}}, "data": [{"molecule": "B1", "values": [{"measurement": "luminescent intensities detected from lung, liver, kidney and intestine", "setting": "experimental group (group 3) compared with control group (group 2)", "value": "obviously decreased"}, {"measurement": "Fold change of the luciferin value, Intestine", "setting": "[1]", "value": 1.96}, {"measurement": "Fold change of the luciferin value, Kidney", "setting": "[1]", "value": 1.08}, {"measurement": "Fold change of the luciferin value, Liver", "setting": "[1]", "value": 1.57}, {"measurement": "Fold change of the luciferin value, Lung", "setting": "[1]", "value": 1.68}, {"measurement": "Fold change of the luciferin value, Brain", "setting": "[2]", "value": 1.40}, {"measurement": "Fold change of the luciferin value, Heart", "setting": "[2]", "value": 1.13}, {"measurement": "Fold change of the luciferin value, Ovary", "setting": "[2]", "value": 1.17}, {"measurement": "Fold change of the luciferin value, Spleen", "setting": "[2]", "value": 1.08}, {"measurement": "Fold change of the luciferin value, Stomach", "setting": "[2]", "value": 1.11}]}]}
